Data as given in patent publication US20150344570A1 (published 2015).
Where a chain is given by its changes, count along the chain named. Numbers in names are those of the source.

T1: FcgRIIb (human, UniProt P31994 43-217)
T1 construct: extracellular domain; also called FcγRIIb; CD32B; not shown: His tag attached to the C terminus
T1 sequence (looked up): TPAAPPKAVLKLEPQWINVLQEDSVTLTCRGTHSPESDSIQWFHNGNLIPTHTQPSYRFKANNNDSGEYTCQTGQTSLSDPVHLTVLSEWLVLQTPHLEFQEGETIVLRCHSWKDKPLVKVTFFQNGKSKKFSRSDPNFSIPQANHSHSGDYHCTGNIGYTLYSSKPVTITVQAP

T2: FcgRIIaH (human, UniProt P12318 34-217)
T2 construct: extracellular domain; Allotype H131; also called FcγRIIa H; FcgRIIa type H; not shown: His tag attached to the C terminus
T2 sequence (looked up): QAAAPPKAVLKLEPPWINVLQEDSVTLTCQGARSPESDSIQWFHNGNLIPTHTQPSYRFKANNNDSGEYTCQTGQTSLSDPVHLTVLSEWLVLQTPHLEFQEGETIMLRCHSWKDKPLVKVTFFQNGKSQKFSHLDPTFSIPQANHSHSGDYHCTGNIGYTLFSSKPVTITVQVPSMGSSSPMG

T3: FcgRIIaR (human, UniProt P12318 34-217)
T3 construct: extracellular domain; Allotype R131; also called FcγRIIa R; FcgRIIa type R; not shown: His tag attached to the C terminus
T3 sequence (looked up): T2 sequence (looked up) with H134R

T4: FcgRIIaR (human, UniProt P12318 34-217)
T4 construct: extracellular domain; also called FcγRIIa R; FcγRIIa type R; not shown: His tag at the C terminus
T4 sequence (looked up): T2 sequence (looked up) with H134R

T5: FcgRIIb (human, UniProt P31994 43-217)
T5 construct: extracellular domain; also called FcγRIIb; 2b; not shown: His tag at the C terminus
T5 sequence (looked up): T1 sequence (looked up)

T6: FcgRIIaH (human, UniProt P12318 34-217)
T6 construct: extracellular domain; also called FcγRIIa H; FcγRIIa type H; not shown: His tag at the C terminus
T6 sequence (looked up): T2 sequence (looked up)

B1: H240-Kn149/H240-Hl068/L73-k0 (antibody, human IgG1, kappa)
heavy 1: QDQLVQSGAEVKKPGASVKVSCKASGFNIKDTYIQWVRQAPGQGLEWMGRIDPLRKQTKYREKFEGRVTITADTSTNTAYMELSSLRSEDTAVYYCVRSGREFDYWGQGTLVTVSSASTKGPSVFPLAPSSKSTSGGTAALGCLVKDYFPEPVTVSWNSGALTSGVHTFPAVLQSSGLYSLSSVVTVPSSSLGTQTYICNVNHKPSNTKVDKKVEPKSCDKTHTCPPCPAPEYYWGPMVFLFPPKPKDTLMISRTPEVTCVVVDVSDEDPEVKFNWYVDGVEVHNAKTKPREEQYNATYRVVSVLTVLHQDWLNGKEYKCKVSNKDWPAPIELTISKAKGQPREPQVCTLPPSRDELTKNQVSLWCLVKGFYPSDIAVEWESNGQPENNYKTTPPVLDSDGSFFLYSKLTVDKSRWQQGNVFSCSVMHEALHNHYTQKSLSLSP
heavy 2: QDQLVQSGAEVKKPGASVKVSCKASGFNIKDTYIQWVRQAPGQGLEWMGRIDPLRKQTKYREKFEGRVTITADTSTNTAYMELSSLRSEDTAVYYCVRSGREFDYWGQGTLVTVSSASTKGPSVFPLAPSSKSTSGGTAALGCLVKDYFPEPVTVSWNSGALTSGVHTFPAVLQSSGLYSLSSVVTVPSSSLGTQTYICNVNHKPSNTKVDKKVEPKSCDKTHTCPPCPAPELLGGPSVFLFPPKPKDTLMISRTPEVTCVVVDVSHEEPEVKFNWYVDGVEVHNAKTKPREEQYNSTYRVVSVLTVLHQDWLNGKEYKCKVSNDALPKPIEETISKAKGQPREPQVYTLPPSRCELTKNQVSLSCAVKGFYPSDIAVEWESNGQPENNYKTTPPVLDSDGSFFLVSKLTVDKSRWQQGNVFSCSVMHEALHNHYTQKSLSLSP
light: DIQMTQSPSSLSASVGDRVTITCRASQDIHKYIAWYQQKPGQAPRLLIQYTSTLQPGVPSRFSGSGSGTDYTFTISSLQPEDIATYYCLQYEQLRTFGGGTKVEIKRTVAAPSVFIFPPSDEQLKSGTASVVCLLNNFYPREAKVQWKVDNALQSGNSQESVTEQDSKDSTYSLSSTLTLSKADYEKHKVYACEVTHQGLSSPVTKSFNRGEC
notes: Heterodimerized anti-epiregulin IgG1 antibody; L328W and K334L in H240-Kn120
B2: H240-Kn033/H240-Hl033/L73-k0 (antibody, human IgG1, kappa)
heavy 1: not shown
heavy 2: not shown
light: B1 light
notes: Anti-epiregulin IgG1 with knobs-into-holes alterations only
B3: H240-Kn037/H240-Hl036/L73-k0 (antibody, human IgG1, kappa)
heavy 1: B1 heavy 1 with Y233L, Y234L, W235A, M238D, D267H, A297S, D326A, W327L, I331E, L333K
heavy 2: B1 heavy 2 with G235A, S238D, E269D, D325K, K329A, I331E, E333K
light: B1 light
notes: It says both H chains have G236A/S239D/I332E
B4: H240-Kn032/H240-Hl032/L73-k0 (antibody, human IgG1, kappa)
heavy 1: QDQLVQSGAEVKKPGASVKVSCKASGFNIKDTYIQWVRQAPGQGLEWMGRIDPLRKQTKYREKFEGRVTITADTSTNTAYMELSSLRSEDTAVYYCVRSGREFDYWGQGTLVTVSSASTKGPSVFPLAPSSKSTSGGTAALGCLVKDYFPEPVTVSWNSGALTSGVHTFPAVLQSSGLYSLSSVVTVPSSSLGTQTYICNVNHKPSNTKVDKKVEPKSCDKTHTCPPCPAPELLGGPDVFLFPPKPKDTLMISRTPEVTCVVVDVSHEDPEVKFNWYVDGVEVHNAKTKPREEQYNSTYRVVSVLTVLHQDWLNGKEYKCKVSNKALPLPEEKTISKAKGQPREPQVCTLPPSRDELTKNQVSLWCLVKGFYPSDIAVEWESNGQPENNYKTTPPVLDSDGSFFLYSKLTVDKSRWQQGNVFSCSVMHEALHNHYTQKSLSLSP
heavy 2: B4 heavy 1 with C348Y, D355C, W365S, L367A, Y406V
light: B1 light
notes: S239D/A330L/I332E in both H chains

What was measured:
FcgRIIb [1] = target: T1, FcgRIIb; assay: SPR (Biacore); KD of H240-Kn120/H240-Hl068/L73-k0 divided by KD of the sample
Method: (§1) Analysis of interaction between objective antibody and the FcγR was carried out using Biacore T100 (GE Healthcare), Biacore T200, Biacore A100, and Biacore 4000. HBS-EP+ (GE Healthcare) was used as the running buffer, and the measurement temperature was set to 25° C. Chips produced by immobilizing the antigen peptide by the amine coupling method to a Series S sensor Chip CM5 (GE Healthcare), chips produced by allowing preliminarily biotinylated antigen peptides to interact with and immobilize onto a Series S Sensor Chip SA (certified) (GE Healthcare), chips produced by immobilizing Protein L (ACTIGEN, BioVision) to Series S Sencor Chip CM5 (GE Healthcare), or chips produced by immobilizing Protein A/G (Thermo Scientific) to Series S Sencor Chip CM5 (GE Healthcare) were used. Antibodies of interest were captured onto these chips, and allowed to interact to each FcγR diluted with running buffer. To regenerate and repeatedly use the chip, the antibodies captured onto the chip were washed off by reacting 10 mM glycine-HCl, pH 1.5.

FcgRIIaH [2] = target: T2, FcgRIIaH; assay: as above
Method: as §1

FcgRIIaR [3] = target: T3, FcgRIIaR; assay: as above
Method: as §1

FcgRIa = target: T7, FcgRIa (human, UniProt P12314 16-292); assay: as above
T7 construct: extracellular domain; Soluble extracellular domain expressed in FreeStyle293 cells; also called FcγRIa; FcγRI; not shown: His tag attached to the C terminus
T7 sequence (P12314 16-292): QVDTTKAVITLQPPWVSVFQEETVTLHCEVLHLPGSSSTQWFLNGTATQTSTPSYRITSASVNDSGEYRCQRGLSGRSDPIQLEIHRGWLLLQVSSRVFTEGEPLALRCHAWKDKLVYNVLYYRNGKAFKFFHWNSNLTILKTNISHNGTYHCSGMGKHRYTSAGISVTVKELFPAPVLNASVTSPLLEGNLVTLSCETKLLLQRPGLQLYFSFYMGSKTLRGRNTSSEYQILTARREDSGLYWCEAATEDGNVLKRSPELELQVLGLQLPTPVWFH
Method: as §1

FcgRIIIaV [4] = target: T8, FcgRIIIaV (human, UniProt P08637 17-208); assay: as above
T8 construct: extracellular domain; Allotype V158; also called FcγRIIIa V; not shown: His tag attached to the C terminus
Method: as §1
T8 sequence (P08637 17-208 F176V limits assumed): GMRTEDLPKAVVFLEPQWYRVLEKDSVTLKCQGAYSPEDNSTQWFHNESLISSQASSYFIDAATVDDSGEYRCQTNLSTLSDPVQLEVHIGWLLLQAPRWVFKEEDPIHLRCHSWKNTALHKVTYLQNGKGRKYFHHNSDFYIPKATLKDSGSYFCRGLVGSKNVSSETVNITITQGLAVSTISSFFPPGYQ

FcgRIIaR [5] = target: T4, FcgRIIaR; assay: SPR (Biacore); KD of H240-Kn033/H240-Hl033/L73-k0 divided by KD of the variant
Method: (§2) Next, the amino acid at position 330 was examined. The A330M alteration has been introduced into H240-Hl076 of H240-Kn125/H240-Hl076/L73-k0. […] L73-k0 was used as the common antibody L chain. Binding of the produced variants to FcgRIa, FcgRIIaR, FcgRIIaH, FcgRIIb, FcgRIIIaF, and FcgRIIIaV was measured according to the method of Reference Example 8.
as §1

FcgRIIIaF = target: T9, FcgRIIIaF (human, UniProt P08637 17-208); assay: as above
T9 construct: extracellular domain; Polymorphic site after J. Clin. Invest; also called FcγRIIIa F; 3aF; not shown: His tag at the C terminus
T9 sequence (P08637 17-208): as the sequence (P08637 17-208 F176V limits assumed) above, with V160F counted along it
Method: as §2, §1

FcgRIIIaV [6] = target: T10, FcgRIIIaV (human, UniProt P08637 17-208); assay: as above
T10 construct: extracellular domain; Polymorphic site after J. Clin. Invest; also called FcγRIIIa V; 3aV; not shown: His tag at the C terminus
Method: as §2, §1
T10 sequence (P08637 17-208 F176V limits assumed): as the sequence (P08637 17-208 F176V limits assumed) above

FcgRIIb [7] = target: T5, FcgRIIb; assay: as above
Method: as §2, §1

FcgRIIaH [8] = target: T6, FcgRIIaH; assay: as above
Method: as §2, §1

Binder	relative KD (FcgRIIb [1])	relative KD (FcgRIIaH [2])	relative KD (FcgRIIaR [3])	relative KD (FcgRIa)	relative KD (FcgRIIIaV [4])	fold 2aR (FcgRIIaR [5]) [fold]	fold 3aF (FcgRIIIaF) [fold]	fold 3aV (FcgRIIIaV [6]) [fold]	fold 2b (FcgRIIb [7]) [fold]	fold 2aH (FcgRIIaH [8]) [fold]
B1	1	1.6	1.1	0.4	1.1					
B2						1	1	1	1	1
B3						25.5	13.8	7.1	8.7	11.3
B4						2.2	31.9	15.5	5.3	0.8
